Results: US20100093033

Key:
[1] = target: E47-LacI fusion (Escherichia coli LacI; E47 organism not stated) (UniProt P03023); assay: cell_activity; settings: sIgM loss; almost reversed by 100 uM IPTG
[2] = target: LacI-HP1 fusion (Escherichia coli LacI; Drosophila melanogaster HP1a) (UniProt P03023); assay: cell_activity; settings: sIgM loss; chromatin effects largely reversed by 250 uM IPTG
[3] = target: HIRA-LacI fusion (Escherichia coli LacI; HIRA organism not stated) (UniProt P03023); assay: cell_activity; settings: sIgM loss; untethered HIRA 1.7-fold
[4] = target: Lactose repressor LacI (Escherichia coli) (UniProt P03023); settings: CITED general LacO affinity, method not stated; printed as <10-12 M; cited from earlier work
[5] = tested on: E2A (Gallus gallus); settings: ChIP with anti-E2A vs IgG, normalized to ovalbumin

Substance	activity (fold diversification vs GFP-LacI) [1]	activity (fold diversification vs GFP-LacI) [2]	activity (fold diversification vs GFP-LacI) [3]	Kd [4] [pM]	binding signal (fold enrichment) [5]
PolyLacO at Igλ (about 80-100 repeats of 20 bp lac operator, 3.8 kb)	4.5	5.6	11	< 1	–
rearranged VλR allele, DT40	–	–	–	–	17.6
